Patent publication US20040170622A1, “Methods and compositions for modulating XBP-1 activity” (President and Fellows of Harvard College, priority 2002, published 2004)

Test system: BCL-1 cells
Assay: IgM secretion by retrovirally transduced BCL-1 cells (ELISA)
Assay type: cell-based
Description: Mouse splenocytes or purified B cells (purified mature B cells were isolated from spleen and lymph nodes by magnetic CD43 depletion or B220 magnetic bead selection, Miltenyi Biotech, Auburn Calif.) were plated at 1×10^6 cells/ml in complete media containing RPMI 1640 supplemented with 10% fetal calf serum (FBS)(Hyclone Laboratories), glutamine (2 mM), penicillin (50 units/ml), streptomycin (50 μg/ml), Hepes (100 mM), nonessential amino acids (1×) sodium pyruvate (1 mM) and β-ME (50 μM) and stimulated with anti-CD40(1 μg/ml)(Pharmigen) or LPS (20 μg/ml)(Sigma). Cytokines (R&D Systems, Minneapolis, Minn.) were used at IL-4 (20 ng/ml), IL-2 (20 ng/ml), Il-5 (20 ng/ml), IL-6 (20 ng/ml ), IL-10 (20 ng/ml ) and IL-13 (20 ng/ml). Stimulated B cells were split to a cell concentration of 1×10^6 cells/ml with fresh media every 24 h. The BCL1 (CWS13.20-3B3 ATCC CRL 1699) cell line was cultured in RPMI media supplemented with 10% FBS, gentamicin (20 μg/ml), and β-ME (50 μM). To induce differentiation cells were plated at 2×10^5 cells/ml and treated with recombinant mouse IL-2 and IL-5 (20 ng/ml) (R&D systems).
Assays to measure immunoglobulin or cytokine levels in culture supernatants were performed as described (e.g., Hodge et al., 1996 Immunity. 4:397-405 or Science. 1996 274:1903-5).
The XBP-1 cDNAs for the unspliced (XBP-1u/s) and the spliced (XBP-1s) forms were PCR-amplified from the total RNA of untreated and tunicamycin treated NIH3T3 cells, respectively, with a primer set (5′-[…]-3′ (SEQ ID NO: 7) and 5′-[…]-3′) (SEQ ID NO: 8). XBP-1u form was generated by a PCR-based mutagenesis from XBP-unspliced/s cDNA so that the two G residues at position 532 and 535 were changed to A without changing amino acid sequences in the XBP-1u open reading frame. Numbers are based on the sequences from gene bank database (NM_013842 [gi:13775155]). These XBP-1 cDNAs were inserted into the GFP-RV retroviral vector by using blunt end ligation (Sambrook et al., 1989). EFFECTENE transfection (Quiagen) was used to introduce the DNA into the Phoenix cell line as described by manufacturer (e.g., Reimold et al., 2001 Nature. 412:300-7 or Int Immunol. 2001 13:241-8). Viral supernatants were harvested after 48 hours and frozen at −80° C. for later use. B cells were purified from mouse spleens using CD43 depletion or positive selection with B220+ magnetic beads as described by the manufacturer (MidiMacs, Miltenyi Biotech). B cell purity was generally near 95% as confirmed by flow cytometry. The B cells (10^6 cells /ml) were then activated in culture with LPS 10 μg/ml and F (ab′)2 anti-IgM (5 μg/ml Southern Biotechnology Associates Inc.) for 24 hours. […]

B1: XBP-1s: vector encoding only the spliced form of murine XBP-1, a protein of 371 aa (protein)
chain: MVVVAAAPSAATAAPKVLLLSGQPASGGRALPLMVPGPRAAGSEASGTPQARKRQRLTHLSPEEKALRRKLKNRVAAQTARDRKKARMSELEQQVVDLEEENHKLQLENQLLREKTHGLVVENQELRTRLGMDTLDPDEVPEVEAKGSGVRLVAGSAESAAGAGPVVTSPEHLPMDSDTVASSDSESDILLGILDKLDPVMFFKCPSPESASLEELPEVYPEGPSSLPASLSLSVGTSSAKLEAINELIRFDHVYTKPLVLEIPSETESQTNVVVKIEEAPLSSSEEDHPEFIVSVKKEPLEDDFIPELGISNLLSSSHCLRPPSCLLDAHSDCGYEGSPSPFSDMSSPLGTDHSWEDTFANELFPQLISV
- IgM secretion compared to vector alone controls (GFP positive BCL-1 cells treated with IL-2 and IL-5 for 3 days): approximately fourfold
- Ig secretion (GFP positive BCL-1 cells untreated with cytokine): neither XBP-1u/s nor XBP-1s forms were able to induce Ig secretion
